Experimental data from PMC9482650, “Quantitative fragmentomics allow affinity mapping of interactomes” (Nature Communications, 2022).

How the values were obtained:
Test in all cases: holdup assay
Design in all cases: key: below the threshold = too weak to quantify, mostly under pKd 3.1 to 4
AHNAK1, Q09666 = target: AHNAK1, Q09666
APBA3_1, O96018 = target: T1, APBA3_1, O96018
T1 sequence (O96018 389-490, limits assumed, looked up): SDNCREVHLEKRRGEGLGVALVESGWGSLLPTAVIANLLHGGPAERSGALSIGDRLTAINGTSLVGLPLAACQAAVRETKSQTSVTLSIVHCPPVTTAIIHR

ARHGEF12, Q9NZN5-2 = target: ARHGEF12, Q9NZN5-2
DFNB31_1, Q9P202 = target: T2, DFNB31_1, Q9P202
T2 sequence (Q9P202 135-233, limits assumed, looked up): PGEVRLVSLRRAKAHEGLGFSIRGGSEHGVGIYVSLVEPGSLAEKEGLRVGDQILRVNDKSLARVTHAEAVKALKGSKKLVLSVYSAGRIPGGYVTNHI

DFNB31_3, Q9P202 = target: T3, DFNB31_3, Q9P202
T3 sequence (Q9P202 811-907, limits assumed, looked up): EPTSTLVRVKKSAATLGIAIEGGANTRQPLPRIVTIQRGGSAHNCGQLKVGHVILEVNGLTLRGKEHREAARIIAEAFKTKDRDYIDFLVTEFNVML

DLG2_2, Q15700 = target: DLG2_2, Q15700
GORASP1, Q9BQQ3 = target: GORASP1, Q9BQQ3
GRID2IP_2, A4D2P6 = target: GRID2IP_2, A4D2P6
GRIP1_2, Q9Y3R0 = target: T4, GRIP1_2, Q9Y3R0
T4 sequence (Q9Y3R0 145-248, limits assumed, looked up): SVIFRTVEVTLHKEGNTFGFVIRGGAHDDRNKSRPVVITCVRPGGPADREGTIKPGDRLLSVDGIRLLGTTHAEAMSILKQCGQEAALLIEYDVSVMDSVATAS

GRIP1_4, Q9Y3R0 = target: T5, GRIP1_4, Q9Y3R0
T5 sequence (Q9Y3R0 467-571, limits assumed, looked up): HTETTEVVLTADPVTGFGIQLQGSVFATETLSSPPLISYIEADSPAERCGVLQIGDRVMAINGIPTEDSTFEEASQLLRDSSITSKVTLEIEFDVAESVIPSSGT

GRIP1_7, Q9Y3R0 = target: T6, GRIP1_7, Q9Y3R0
T6 sequence (Q9Y3R0 999-1096, limits assumed, looked up): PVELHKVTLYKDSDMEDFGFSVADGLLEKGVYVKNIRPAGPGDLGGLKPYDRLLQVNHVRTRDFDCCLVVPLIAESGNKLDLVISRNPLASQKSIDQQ

GRIP2_4, Q9C0E4 = target: GRIP2_4, Q9C0E4
HTRA1, Q92743 = target: HTRA1, Q92743
Inadl_3, Q8NI35 = target: Inadl_3, Q8NI35
LAP2, Q96RT1 = target: LAP2, Q96RT1
LNX1_3, Q8TBB1 = target: LNX1_3, Q8TBB1
MAST2, Q6P0Q8 = target: MAST2, Q6P0Q8
MPDZ_5, O75970 = target: T7, MPDZ_5, O75970
T7 sequence (O75970 695-796, limits assumed, looked up): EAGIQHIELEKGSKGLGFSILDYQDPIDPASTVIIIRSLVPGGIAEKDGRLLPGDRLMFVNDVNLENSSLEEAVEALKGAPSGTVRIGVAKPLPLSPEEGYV

MPP2, Q14168 = target: T8, MPP2, Q14168
T8 sequence (Q14168 180-250, limits assumed, looked up): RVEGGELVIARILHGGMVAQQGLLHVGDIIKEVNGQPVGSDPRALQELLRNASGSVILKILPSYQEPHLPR

PICK1, Q9NRD5 = target: PICK1, Q9NRD5
PTPN3, P26045 = target: PTPN3, P26045
SHANK1, Q9Y566 = target: T9, SHANK1, Q9Y566
T9 sequence (Q9Y566 658-767, limits assumed, looked up): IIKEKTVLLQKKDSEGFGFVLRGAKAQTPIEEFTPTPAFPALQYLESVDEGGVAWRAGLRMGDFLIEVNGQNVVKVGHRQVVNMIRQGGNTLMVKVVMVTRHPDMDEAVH

SIPA1L2, Q9P2F8 = target: T10, SIPA1L2, Q9P2F8
T10 sequence (Q9P2F8 945-1036, limits assumed, looked up): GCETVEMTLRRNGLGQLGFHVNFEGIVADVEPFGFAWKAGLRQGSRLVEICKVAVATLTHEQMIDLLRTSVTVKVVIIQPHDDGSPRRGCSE

TIAM2, Q8IVF5 = target: T11, TIAM2, Q8IVF5
T11 sequence (Q8IVF5 885-986, limits assumed, looked up): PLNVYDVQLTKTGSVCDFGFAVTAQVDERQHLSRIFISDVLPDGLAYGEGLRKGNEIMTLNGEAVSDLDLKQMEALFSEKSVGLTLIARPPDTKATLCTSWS

TJP2_1, Q9UDY2 = target: TJP2_1, Q9UDY2
TJP3_3, O95049 = target: T12, TJP3_3, O95049
T12 sequence (O95049 375-456, limits assumed, looked up): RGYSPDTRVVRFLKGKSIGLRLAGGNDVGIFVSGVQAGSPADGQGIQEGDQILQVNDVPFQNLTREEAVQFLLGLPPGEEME

[1] = plain residues with an end cap or a label only (N-terminal biotin on a linker: ttds)
[2] = plain residues with an end cap or a label only (N-terminal biotin on a linker: ahx)

Chain of LNX1_3, Q8TBB1 (Q8TBB1 500-596): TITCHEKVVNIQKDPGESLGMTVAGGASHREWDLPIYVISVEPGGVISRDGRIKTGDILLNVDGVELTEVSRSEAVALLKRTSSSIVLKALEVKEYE
Chain of ARHGEF12, Q9NZN5-2 (Q9NZN5 other isoform, or with tags, fused parts or gaps): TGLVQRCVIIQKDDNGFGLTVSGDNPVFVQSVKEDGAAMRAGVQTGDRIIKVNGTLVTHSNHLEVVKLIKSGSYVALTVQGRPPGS
Chain of PICK1, Q9NRD5 (Q9NRD5 17-115): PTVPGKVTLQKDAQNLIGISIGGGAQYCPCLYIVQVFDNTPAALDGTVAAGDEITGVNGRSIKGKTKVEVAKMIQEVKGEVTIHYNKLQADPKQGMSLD
Chain of AHNAK1, Q09666 (Q09666 4-100): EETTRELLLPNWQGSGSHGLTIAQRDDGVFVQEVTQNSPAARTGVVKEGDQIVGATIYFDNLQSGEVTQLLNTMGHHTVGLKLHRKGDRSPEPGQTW
Chain of GRIP2_4, Q9C0E4 (Q9C0E4 446-548): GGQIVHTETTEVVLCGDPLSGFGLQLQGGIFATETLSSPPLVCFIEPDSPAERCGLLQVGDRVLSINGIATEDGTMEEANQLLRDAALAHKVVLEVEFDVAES
Chain of GORASP1, Q9BQQ3 (Q9BQQ3 1-208): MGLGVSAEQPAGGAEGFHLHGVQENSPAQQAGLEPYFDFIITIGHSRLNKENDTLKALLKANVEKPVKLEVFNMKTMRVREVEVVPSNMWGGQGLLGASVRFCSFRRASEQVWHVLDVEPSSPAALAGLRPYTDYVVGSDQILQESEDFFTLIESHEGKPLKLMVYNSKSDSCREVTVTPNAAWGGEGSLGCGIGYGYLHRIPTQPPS
Chain of LAP2, Q96RT1 (Q96RT1 other isoform, or with tags, fused parts or gaps): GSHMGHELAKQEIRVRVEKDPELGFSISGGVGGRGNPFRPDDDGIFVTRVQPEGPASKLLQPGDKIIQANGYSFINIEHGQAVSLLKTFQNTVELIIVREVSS
Chain of DLG2_2, Q15700 (Q15700 189-283): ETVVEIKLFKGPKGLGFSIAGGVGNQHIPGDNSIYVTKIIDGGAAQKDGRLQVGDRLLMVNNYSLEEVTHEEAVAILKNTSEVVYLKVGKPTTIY
Chain of HTRA1, Q92743 (Q92743 360-477): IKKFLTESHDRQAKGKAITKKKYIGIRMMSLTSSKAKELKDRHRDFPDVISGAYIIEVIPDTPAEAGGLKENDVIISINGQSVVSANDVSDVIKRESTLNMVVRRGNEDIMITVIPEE
Chain of Inadl_3, Q8NI35 (Q8NI35 359-469): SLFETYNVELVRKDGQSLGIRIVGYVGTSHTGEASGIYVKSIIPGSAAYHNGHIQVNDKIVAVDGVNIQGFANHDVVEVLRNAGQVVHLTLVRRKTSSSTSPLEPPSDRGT
Chain of PTPN3, P26045 (P26045 505-587): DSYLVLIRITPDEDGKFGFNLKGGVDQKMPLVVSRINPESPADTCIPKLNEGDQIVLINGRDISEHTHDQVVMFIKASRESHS
Chain of GRID2IP_2, A4D2P6 (A4D2P6 272-370): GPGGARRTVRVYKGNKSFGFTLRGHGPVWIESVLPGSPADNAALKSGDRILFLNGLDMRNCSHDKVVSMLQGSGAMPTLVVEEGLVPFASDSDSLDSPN
Chain of MAST2, Q6P0Q8 (Q6P0Q8 1099-1202): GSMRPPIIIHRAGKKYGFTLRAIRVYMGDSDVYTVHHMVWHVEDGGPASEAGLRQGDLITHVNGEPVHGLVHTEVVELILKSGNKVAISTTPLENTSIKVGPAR
Chain of TJP2_1, Q9UDY2 (Q9UDY2 24-128): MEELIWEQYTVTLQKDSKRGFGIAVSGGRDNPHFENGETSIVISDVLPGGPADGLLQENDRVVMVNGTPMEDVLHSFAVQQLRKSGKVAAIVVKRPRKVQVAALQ

GQDSREETQL [KCNT2, Q6UVM3]
pKd (AHNAK1, Q09666; [1]): below the threshold
pKd (APBA3_1, O96018; [1]): below the threshold
pKd (ARHGEF12, Q9NZN5-2; [1]): 4.67
pKd (DFNB31_1, Q9P202; [1]): 3.82
pKd (DFNB31_3, Q9P202; [1]): below the threshold
pKd (DLG2_2, Q15700; [1]): 4.47
pKd (GORASP1, Q9BQQ3; [1]): 3.75
pKd (GRID2IP_2, A4D2P6; [1]): 4.52
pKd (GRIP1_2, Q9Y3R0; [1]): below the threshold
pKd (GRIP1_4, Q9Y3R0; [1]): below the threshold
pKd (GRIP1_7, Q9Y3R0; [1]): below the threshold
pKd (GRIP2_4, Q9C0E4; [1]): below the threshold
pKd (HTRA1, Q92743; [1]): below the threshold
pKd (Inadl_3, Q8NI35; [1]): below the threshold
pKd (LAP2, Q96RT1; [1]): 3.75
pKd (LNX1_3, Q8TBB1; [1]): below the threshold
pKd (MAST2, Q6P0Q8; [1]): 5.91
pKd (MPDZ_5, O75970; [1]): below the threshold
pKd (MPP2, Q14168; [1]): below the threshold
pKd (PICK1, Q9NRD5; [1]): below the threshold
pKd (PTPN3, P26045; [1]): 4.9
pKd (SHANK1, Q9Y566; [1]): 4.67
pKd (SIPA1L2, Q9P2F8; [1]): below the threshold
pKd (TIAM2, Q8IVF5; [1]): below the threshold
pKd (TJP2_1, Q9UDY2; [1]): below the threshold
pKd (TJP3_3, O95049; [1]): below the threshold

QSARYRDTEL [TJP2, Q9UDY2]
pKd (AHNAK1, Q09666; [1]): 3.75
pKd (APBA3_1, O96018; [1]): below the threshold
pKd (ARHGEF12, Q9NZN5-2; [1]): 4.27
pKd (DFNB31_1, Q9P202; [1]): 3.57
pKd (DFNB31_3, Q9P202; [1]): below the threshold
pKd (DLG2_2, Q15700; [1]): 3.61
pKd (GORASP1, Q9BQQ3; [1]): below the threshold
pKd (GRID2IP_2, A4D2P6; [1]): below the threshold
pKd (GRIP1_2, Q9Y3R0; [1]): below the threshold
pKd (GRIP1_4, Q9Y3R0; [1]): below the threshold
pKd (GRIP1_7, Q9Y3R0; [1]): 3.82
pKd (GRIP2_4, Q9C0E4; [1]): below the threshold
pKd (HTRA1, Q92743; [1]): below the threshold
pKd (Inadl_3, Q8NI35; [1]): below the threshold
pKd (LAP2, Q96RT1; [1]): below the threshold
pKd (LNX1_3, Q8TBB1; [1]): below the threshold
pKd (MAST2, Q6P0Q8; [1]): 5.7
pKd (MPDZ_5, O75970; [1]): below the threshold
pKd (MPP2, Q14168; [1]): below the threshold
pKd (PICK1, Q9NRD5; [1]): below the threshold
pKd (PTPN3, P26045; [1]): 4.98
pKd (SHANK1, Q9Y566; [1]): 3.74
pKd (SIPA1L2, Q9P2F8; [1]): below the threshold
pKd (TIAM2, Q8IVF5; [1]): below the threshold
pKd (TJP2_1, Q9UDY2; [1]): below the threshold
pKd (TJP3_3, O95049; [1]): 3.55

TEAKLTETNA [MYO18A, Q92614]
pKd (AHNAK1, Q09666; [2]): below the threshold
pKd (APBA3_1, O96018; [2]): below the threshold
pKd (ARHGEF12, Q9NZN5-2; [2]): below the threshold
pKd (DFNB31_1, Q9P202; [2]): below the threshold
pKd (DFNB31_3, Q9P202; [2]): below the threshold
pKd (DLG2_2, Q15700; [2]): below the threshold
pKd (GORASP1, Q9BQQ3; [2]): below the threshold
pKd (GRID2IP_2, A4D2P6; [2]): below the threshold
pKd (GRIP1_2, Q9Y3R0; [2]): below the threshold
pKd (GRIP1_4, Q9Y3R0; [2]): below the threshold
pKd (GRIP1_7, Q9Y3R0; [2]): below the threshold
pKd (GRIP2_4, Q9C0E4; [2]): below the threshold
pKd (HTRA1, Q92743; [2]): below the threshold
pKd (Inadl_3, Q8NI35; [2]): below the threshold
pKd (LAP2, Q96RT1; [2]): below the threshold
pKd (LNX1_3, Q8TBB1; [2]): below the threshold
pKd (MAST2, Q6P0Q8; [2]): below the threshold
pKd (MPDZ_5, O75970; [2]): below the threshold
pKd (MPP2, Q14168; [2]): below the threshold
pKd (PICK1, Q9NRD5; [2]): below the threshold
pKd (PTPN3, P26045; [2]): below the threshold
pKd (SHANK1, Q9Y566; [2]): below the threshold
pKd (SIPA1L2, Q9P2F8; [2]): below the threshold
pKd (TIAM2, Q8IVF5; [2]): below the threshold
pKd (TJP2_1, Q9UDY2; [2]): below the threshold
pKd (TJP3_3, O95049; [2]): below the threshold

VLRLQSETSV [VANGL1, Q8TAA9]
pKd (AHNAK1, Q09666; [1]): below the threshold
pKd (APBA3_1, O96018; [1]): below the threshold
pKd (ARHGEF12, Q9NZN5-2; [1]): 3.7
pKd (DFNB31_1, Q9P202; [1]): 4.03
pKd (DFNB31_3, Q9P202; [1]): below the threshold
pKd (DLG2_2, Q15700; [1]): 4.58
pKd (GORASP1, Q9BQQ3; [1]): below the threshold
pKd (GRID2IP_2, A4D2P6; [1]): below the threshold
pKd (GRIP1_2, Q9Y3R0; [1]): below the threshold
pKd (GRIP1_4, Q9Y3R0; [1]): below the threshold
pKd (GRIP1_7, Q9Y3R0; [1]): 3.73
pKd (GRIP2_4, Q9C0E4; [1]): below the threshold
pKd (HTRA1, Q92743; [1]): below the threshold
pKd (Inadl_3, Q8NI35; [1]): below the threshold
pKd (LAP2, Q96RT1; [1]): 4.07
pKd (LNX1_3, Q8TBB1; [1]): below the threshold
pKd (MAST2, Q6P0Q8; [1]): 5.56
pKd (MPDZ_5, O75970; [1]): below the threshold
pKd (MPP2, Q14168; [1]): below the threshold
pKd (PICK1, Q9NRD5; [1]): below the threshold
pKd (PTPN3, P26045; [1]): 4.97
pKd (SHANK1, Q9Y566; [1]): 3.77
pKd (SIPA1L2, Q9P2F8; [1]): below the threshold
pKd (TIAM2, Q8IVF5; [1]): below the threshold
pKd (TJP2_1, Q9UDY2; [1]): below the threshold
pKd (TJP3_3, O95049; [1]): below the threshold
